We go through 1 protein from publication PMC3429349 (Science (New York, N.Y.), 2009).

As a reminder, the stoichiometry N is a count of units in the complex or per binding partner.

This data set concerns the molecule itself.

B1: HSF1 K80Q (natural protein, human, UniProt Q00613 1-529, looked up)
chain: MDLPVGPGAAGPSNVPAFLTKLWTLVSDPDTDALICWSPSGNSFHVFDQGQFAKEVLPKYFKHNNMASFVRQLNMYGFRQVVHIEQGGLVKPERDDTEFQHPCFLRGQEQLLENIKRKVTSVSTLKSEDIKIRQDSVTKLLTDVQLMKGKQECMDSKLLAMKHENEALWREVASLRQKHAQQQKVVNKLIQFLISLVQSNRILGVKRKIPLMLNDSGSAHSMPKYSRQFSLEHVHGSGPYSAPSPAYSSSSLYAPDAVASSGPIISDITELAPASPMASPGGSIDERPLSSSPLVRVKEEPPSPPQSPRVEEASPGRPSSVDTLLSPTALIDSILRESEPAPASVTALTDARGHTDTEGRPPSPPPTSTPEKCLSVACLDKNELSDHLDAMDSNLDNLQTMLSSHGFSVDTSALLDLFSPSVTVPDMSLPDLDSSLASIQELLSPQEPPRPPEAENSSPDSGKQLVHYTAQPLFLLDPGSVDTGSNDLPVLFELGEGSYFSEGDGFAEDPTISLLTGSEPPKAKDPTVS
Take B1: the “stoichiometry N” value worked out at 3.
